The labels stand for the following.
T1: hVEGF-A (8-109) (human, UniProt P15692 214-315)
T1 sequence (looked up): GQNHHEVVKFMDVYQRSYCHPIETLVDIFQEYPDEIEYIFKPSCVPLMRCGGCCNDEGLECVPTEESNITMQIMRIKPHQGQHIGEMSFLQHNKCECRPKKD

The target in one test is T1, hVEGF-A (8-109). In words: spot phage ELISA. The protocol:
After four rounds of binding selection, individual phage clones were picked and inoculated into 450 μl 2YT media containing 50 µg/ml Carbenecillin and M13-KO7 helper phage in 96-well blocks, which were grown at 37° C. overnight. […] The plates were washed and bound phage was detected with anti-M13-HRP followed by TMB substrate. In these assays, phage binding to BSA alone was tested in parallel to assess background binding. […] Positive clones were subjected to DNA sequence analysis.
Background: In an ELISA, binding on a coated surface is turned into a signal by an enzyme label.
Consider GCQLMHPFWGCKQDSDCLAGCVCHWYRSCG (designed binder) [VEGF_CKP8], for which the ELISA is 3.9 and the “S/N vs BSA” value came out at 59.4. In the same order, the values of GCNIMLPFWGCSGDFACLAGCVCQYYQSCG (designed binder) [VEGF_CKP9.54.64] are 2.2 and 22.4. Take GCNIMLPFWGCGKELNCLAGCVCQYYQSCG (designed binder) [VEGF_CKP9.54.69]: the ELISA is 2.5 and the “S/N vs BSA” value amounted to 21.7. In the same order, the values of GCNIMLPFWGCGWSMDCLAGCVCQYYQSCG (designed binder) [VEGF_CKP9.54.76] are 2.7 and 42.2. In the same order, the values of GCNIMLPFWGCGKDFHCLAGCVCQYYQSCG (designed binder) [VEGF_CKP9.54.56] are 2.3 and 35.8. In the same order, the values of GCNIMLPFWGCSRDFDCLAGCVCQYYQSCG (designed binder) [VEGF_CKP9.54.44] are 2.4 and 34.4. Consider GCNIMLPFWGCGTNFLCLAGCVCQYYQSCG (designed binder) [VEGF_CKP9.54.31], for which the ELISA turned out to be 2.3 and the “S/N vs BSA” value came out at 32.5. Turning to GCQLMQPFWGCKQDSDCLAGCVCRWYHSCG (designed binder) [VEGF_CKP9.L5.43], the ELISA was found to be 0.9 and the “S/N vs BSA” value came to 13.6. In the same order, the values of GCQLMQPFWGCKQDSDCLAGCVCRWYNSCG (designed binder) [VEGF_CKP9.L5.7] are 1.4 and 18.9. In the same order, the values of GCNIMLPFWGCGPELNCLAGCVCQYYQSCG (designed binder) [VEGF_CKP9.54.12] are 2.4 and 38.8. In the case of GCNIMLPFWGCGWDQFCLAGCVCQYYQSCG (designed binder) [VEGF_CKP9.54.51], the ELISA worked out at 2.5 and the “S/N vs BSA” value worked out at 44.5.

For the molecule GCNIMLPFWGCQADYACLAGCVCQYYQSCG (designed binder) [VEGF_CKP9.54.14], the ELISA was found to be 2.5 and the “S/N vs BSA” value is 23.5. In the same order, the values of GCNIMLPFWGCNRDFLCLAGCVCQYYQSCG (designed binder) [VEGF_CKP9.54.48] are 2.5 and 34.9. In the same order, the values of GCNIMLPFWGCGVDYLCLAGCVCQYYQSCG (designed binder) [VEGF_CKP9.54.16] are 2.4 and 30.8.

As for GCNIMLPFWGCGYDLQCLAGCVCQYYQSCG (designed binder) [VEGF_CKP9.54.87], the ELISA was determined as 2.4 and the “S/N vs BSA” value came out at 26.1. In the same order, the values of GCPAIQNWKEHPCKQDSDCLAGCVCSWWPSLCG (designed binder) [VEGF_CKP5] are 1.9 and 28.4. In the same order, the values of GCPRILMRCKQDSDCLAGCVCGPNGFCG (also called wild type EETI-II) [EETI-II] are 0.01 and 1.11. In the same order, the values of GCKKWQWWYMCKQDSDCLAGCVCYPWTECG (designed binder) [VEGF_CKP4] are 2.6 and 35.3.

A further test addresses T1, hVEGF-A (8-109). In words: spot phage ELISA. This is another data set of the same source.
On to GCNIMLPFWGCGRDFECLAGCVCQYYQSCGPLQ (designed binder) [9.54.90-3x49], for which the binding result is “binds”.

For the molecule GCNIMLPFWGCGRDFECLAGCVCQYYQSCGEHK (designed binder) [9.54.90-3x42], the binding result is recorded as “binds”.

For GCNIMLPFWGCGRDFECLAGCVCQYYQSCGPHQ (designed binder) [9.54.90-3x33], the binding result is on record as “binds”. The same measure, in the same setting: the same measure for GCNIMLPFWGCGRDFECLAGCVCQYYQSCGWDY (designed binder) [9.54.90-3x9]: “binds”; for GCNIMLPFWGCGRDFECLAGCVCQYYQSCGYLS (designed binder) [9.54.90-3x88]: “binds”.

On to GCNIMLPFWGCGRDFECLAGCVCQYYQSCGTFQ (designed binder) [9.54.90-3x10], for which the binding result is reported as “binds”. Same read-out and setting: next, GCNIMLPFWGCGRDFECLAGCVCQYYQSCGWPH (designed binder) [9.54.90-3x13]: “binds”.

For GCNIMLPFWGCGRDFECLAGCVCQYYQSCGNYQ (designed binder) [9.54.90-3X50], the binding result is “binds”. On the same count and under the same terms, the same measure for GCNIMLPFWGCGRDFECLAGCVCQYYQSCGPLI (designed binder) [9.54.90-3X83]: “binds”. On the same count and under the same terms, the same measure for GCNIMLPFWGCGRDFECLAGCVCQYYQSCGDLV (designed binder) [9.54.90-3x91]: “binds”. Still for that read-out and setting: next, GCDVLQPYWGCGPDIDCLSNCICHWYNSCGRL (designed binder) [63.12.12.M5L.2x21]: “binds”; GCDVLQPYWGCGPDIDCLSNCICHWYNSCGDE (designed binder) [63.12.12.M5L.2x25]: “binds”. Regarding GCDVLQPYWGCGPDIDCLSNCICHWYNSCGWK (designed binder) [63.12.12.M5L.2x77], the binding result is “binds”. With GCDVLQPYWGCGPDIDCLSNCICHWYNSCGEQ (designed binder) [63.12.12.M5L.2x12], the binding result is “binds”. Turning to GCDVLQPYWGCGPDIDCLSNCICHWYNSCGPL (designed binder) [63.12.12.M5L.2x48], the binding result is “binds”. For GCDVLQPYWGCGPDIDCLSNCICHWYNSCGPT (designed binder) [63.12.12.M5L.2x30], the binding result was “binds”. Same read-out and setting: the same measure for GCDVLQPYWGCGPDIDCLSNCICHWYNSCGQF (designed binder) [63.12.12.M5L.2x69]: “binds”; for GCDVLQPYWGCGPDIDCLSNCICHWYNSCGSL (designed binder) [63.12.12.M5L.2x29]: “binds”. Same read-out and setting: the same measure for GCDVLQPYWGCGPDIDCLSNCICHWYNSCGRT (designed binder) [63.12.12.M5L.2x2]: “binds”; for GCDVMQPYWGCEMDFDCLAGCVCHWYNSCGND (designed binder) [9.63-77]: “binds”; for GCDVMQPYWGCEMDFDCLAGCVCHWYNSCGST (designed binder) [9.63.44-41]: “binds”. As to GCDVMQPYWGCEMDFDCLAGCICHWYNSCGRT (designed binder) [9.63.44-2-A], the binding result is recorded as “binds”. On the same count and under the same terms, next, GCDVMQPYWGCEMDFDCLAGCVCHWYNSCGEP (designed binder) [9.63.44-16]: “binds”; GCDVMQPYWGCEMDFDCLAGCVCHWYNSCGTP (designed binder) [9.63.44-44]: “binds”.

On to GCDVMQPYWGCEMDFDCLAGCVCHWYNSCGFN (designed binder) [9.63.44-73], for which the binding result is “binds”. The same measure, in the same setting: the same measure for GCDVMQPYWGCEMDFDCLAGCICHWYNSCGDE (designed binder) [9.63-93]: “binds”.

In the case of GCDVMQPYWGCEMDFDCLAGCVCHWYNSCGVN (designed binder) [9.63.44-14 (SEQ ID NO: 514)], the binding result is on record as “binds”.

In the case of GCDVMQPYWGCEMDFDCLAGCVCHWYNSCGGQ (designed binder) [9.63.44-19], the binding result was “binds”. Same read-out and setting: the same measure for GCDVMQPYWGCEMDFDCLAGCVCHWYNSCGYM (designed binder) [9.63.44-54]: “binds”. Same read-out and setting: next, GCDVMQPYWGCEIDFDCLAGCVCHWYNSCGQV (designed binder) [9.63.44-55]: “binds”. On the same count and under the same terms, next, GCDVMQPYWGCEMDFDCLAGCVCHWYNSCGRY (designed binder) [9.63.44-82]: “binds”. As to GCDVMQPYWGCEMDFDCLAGCVCHWYNSCGNS (designed binder) [9.63.44-80], the binding result is reported as “binds”.

The values above are taken from patent US20200325187A1 (Genentech, published 2020).
